In publication PMC9297866:

What was measured:
purified protein [1] = substrate: C=C(C)CCO[P@@](=O)(O)OP(=O)(O)O; assay: purified protein; settings: regular coupling; two-substrate reaction with DMAPP
purified protein [2] = substrate: CC(C)=CCOP(=O)(O)OP(=O)(O)O; assay: purified protein; settings: regular coupling; two-substrate reaction with IPP

B1: neryl diphosphate synthase from Solanum lycopersicum (SlNPPS) (Solanum lycopersicum; N88H) (protein)
chain: SLNLQTEKLCYEDNDNDLDEELMPKHIALIMDGHRRWAKDKGLEVYEGHKHIIPKLKEICDISSKLGIQIITAFAFSTENWKRSKEEVDFLLQMFEEIYDEFSRSGVRVSIIGCKSDLPMTLQKCIALTEETTKGNKGLHLVIALNYGGYYDILQATKSIVNKAMNGLLDVEDINKNLFDQELESKCPNPDLLIRTGGEQRVSNFLLWQLAYTEFYFTNTLFPDFGEEDLKEAIMNFQQRHRRFGGHTY
With B1 the Km (purified protein [1]) was 457 ± 91 µM, the kcat (purified protein [1]) was 87±15×10^-3 s^-1 and the Km (purified protein [2]) was 391 ± 96 µM. The kcat (purified protein [2]) was 87±15×10^-3 s^-1.
